Reference: article PMC7022552, “Structural and Functional Analyses of Human ChaC2 in Glutathione Metabolism” (Biomolecules, 2019)
“And” between values parts separate entries of the source, which are not always exact repeats. Equal values may be shown once.

Columns and labels:
[1] = biological target: human ChaC2 (wild type) (human) (UniProt Q8WUX2); assay: crystal structure; wild type ChaC2 crystals, hanging drop, 14% PEG 8000, 14% ethylene glycol, 100 mM HEPES pH 7.5, 22 °C; three molecules in the asymmetric unit, each in a crystallographic dimer with a molecule of a nearby asymmetric unit
[2] = biological target: the molecule itself; assay: SEC; HiLoad 16/600 Superdex 75 pg, 20 mM Tris-HCl pH 7.1, 150 mM NaCl, 5 mM DTT, 2% glycerol, 1 mL/min, calibrated with molecular weight standards

Molecule | stoichiometry N [1] | stoichiometry N [2]
human ChaC2 (wild type) (from UniProt Q8WUX2 1-184) (enzyme) | 2 | 
human ChaC1 (enzyme, UniProt Q9BUX1 1-222, looked up, human ChaC1, cDNA from the Korean Human Gene Bank, cloned into pET-21a between BamHI and XhoI; source: E. coli C41 (DE3), purified (Ni2+ HiTrap Chelating HP, HiTrap Q HP, Superdex 75 pg)) MKQESAAPNTPPTSQSPTPSAQFPRNDGDPQALWIFGYGSLVWRPDFAYSDSRVGFVRGYSRRFWQGDTFHRGSDKMPGRVVTLLEDHEGCTWGVAYQVQGEQVSKALKYLNVREAVLGGYDTKEVTFYPQDAPDQPLKALAYVATPQNPGYLGPAPEEAIATQILACRGFSGHNLEYLLRLADFMQLCGPQAQDEHLAAIVDAVGTMLPCFCPTEQALALV |  | 2 and 4
